Where two headings read alike, the source gives them in different places.
What was measured:
[1] = test system: HT1080 tumor bearing mice; set-up: species or system mouse (Balb/c nu-nu); details: mouse, in vivo, iv; for Radioactivity biodistribution, Blood / Radioactivity biodistribution, Heart / Radioactivity biodistribution, Intestine / Radioactivity biodistribution, Kidneys / Radioactivity biodistribution, Liver / Radioactivity biodistribution, Lung / Radioactivity biodistribution, Muscle / Radioactivity biodistribution, Pancreas / Radioactivity biodistribution, Spleen / Radioactivity biodistribution, Stomach / Radioactivity biodistribution, Tumor / T/B (tumor to blood ratio): 37 kBq
Experimental: Female Balb/c nu-nu mice (5 weeks old, Japan SLC, Inc., Shizuoka, Japan) were housed under a 12-h light/12-h dark cycle and given free access to food and water. HT1080 cells (5×10^6 cells/100 μl PBS (-)/mouse) were subcutaneously inoculated into the right hind leg of Balb/c nu-nu mice. Animals were used for experiments two weeks after inoculation when the mean tumor size was 5.7±2.2 mm along the major axis. […]3000 and […] (37 kBq, 100 μl in PBS including 3% bovine serum albumin and 0.1% Tween 80) were injected intravenously into the tail vein of tumor bearing mice. The mice were sacrificed at various post-injection time points (n = 3 for each time point), and the organs of interest including the tumor tissues were collected for determination of the weights. The radioactivity of each sample was measured with a NaI well-type scintillation counter. From fitting to the two phase decay curves for blood radioactivity data analyzed by GraphPad Prism 6 (GraphPad Software, San Diego, CA), whole body pharmacokinetic parameters such as blood half-lives, distribution volume, mean residence time and total clearance were calculated for each of the probes and the values compared. Simple pharmacokinetic analysis using a single tissue compartment model was applied to the biodistribution data to calculate rate constants (K1 and k2) for radioactivity transfer from blood to tumor and clearance from tumor to blood by PMOD version 3.2. In addition, MDAP3000 (7.4 MBq in 200 μl) was injected intravenously into the tail vein of tumor bearing mice for metabolite analysis in tumors excised 3, 6, and 24 hr post injection (n = 2 each). Tumor homogenates were prepared on ice and insoluble material was removed by centrifugation after methanol treatment. The resulting supernatant was analyzed by RP-HPLC.

[2] = assay type: physicochemical; details: pH 7.4
Experimental: The experimental determination of probe partition coefficients (log P values) was performed in 1-octanol and 0.02 M phosphate buffer pH 7.4 where the two phases were pre-saturated with each other. 1-Octanol (200 µl) and phosphate buffer (200 µl) were pipetted into LoBind Eppendorf tubes containing 0.37 MBq of probes. The tube was vortexed for 10 seconds, and centrifuged (5 min, 4000×g). Aliquots (50 µl) from the 1-octanol and buffer phases were transferred into two test tubes for radioactivity counting with a NaI well-type scintillation counter (1470 WIZARD, Perkin Elmer, Kanagawa, Japan). The partition coefficient was calculated using the equation P = (counts/µl in 1-octanol)/(counts/µl in buffer).

[3] = test system: HT1080 tumor bearing mice; set-up: species or system mouse (Balb/c nu-nu); details: mouse, in vivo, iv
Experimental: (§1) […]3000 and […] (37 kBq, 100 μl in PBS including 3% bovine serum albumin and 0.1% Tween 80) were injected intravenously into the tail vein of tumor bearing mice. The mice were sacrificed at various post-injection time points (n = 3 for each time point), and the organs of interest including the tumor tissues were collected for determination of the weights. The radioactivity of each sample was measured with a NaI well-type scintillation counter. From fitting to the two phase decay curves for blood radioactivity data analyzed by GraphPad Prism 6 (GraphPad Software, San Diego, CA), whole body pharmacokinetic parameters such as blood half-lives, distribution volume, mean residence time and total clearance were calculated for each of the probes and the values compared. Simple pharmacokinetic analysis using a single tissue compartment model was applied to the biodistribution data to calculate rate constants (K1 and k2) for radioactivity transfer from blood to tumor and clearance from tumor to blood by PMOD version 3.2. In addition, MDAP3000 (7.4 MBq in 200 μl) was injected intravenously into the tail vein of tumor bearing mice for metabolite analysis in tumors excised 3, 6, and 24 hr post injection (n = 2 each). Tumor homogenates were prepared on ice and insoluble material was removed by centrifugation after methanol treatment. The resulting supernatant was analyzed by RP-HPLC.

HT1080 tumor xenograft = test system: HT1080 tumor xenograft; set-up: species or system mouse (Balb/c nu-nu); details: mouse, in vivo, iv
Experimental: as §1

Question: With “Palmitoyl-Dap(p-SCN-Bn-DTPA-^111In)-10-Adc-Gly-Pro-Leu-Gly-Val-Arg-Gly-Lys(ivDde)-PEG1000 [MDAP1000]” as the substance, how does the “Blood clearance (in words)” value [1] read?
Answer: The value was “rapid blood clearance”.

Question: What about the “Tumor accumulation (in words)” value [1] of the same substance?
Answer: Its value is “low tumor accumulation”.

Question: And the “Radioactivity biodistribution, Blood” value ([1]; 0.25 h)?
Answer: Its value is 46.93±5.71 % injected dose per gram.

Question: And the “Radioactivity biodistribution, Heart” value ([1]; 0.25 h)?
Answer: The value was 9.40±2.03 % injected dose per gram.

Question: What about the “Radioactivity biodistribution, Intestine” value ([1]; 0.25 h) of the same substance?
Answer: The value was 4.18±0.58 % injected dose per gram.

Question: And the “Radioactivity biodistribution, Kidneys” value ([1]; 0.25 h)?
Answer: Its value is 14.24±1.90 % injected dose per gram.

Question: What about the “Radioactivity biodistribution, Liver” value ([1]; 0.25 h) of the same substance?
Answer: Its value is 34.27±5.87 % injected dose per gram.

Question: What about the “Radioactivity biodistribution, Lung” value ([1]; 0.25 h) of the same substance?
Answer: The value was 21.23±2.65 % injected dose per gram.

Question: And the “Radioactivity biodistribution, Muscle” value ([1]; 0.25 h)?
Answer: The value was 2.15±0.57 % injected dose per gram.

Question: And the “Radioactivity biodistribution, Pancreas” value ([1]; 0.25 h)?
Answer: The value was 4.28±0.41 % injected dose per gram.

Question: And the “Radioactivity biodistribution, Spleen” value ([1]; 0.25 h)?
Answer: The value was 8.06±0.23 % injected dose per gram.

Question: What about the “Radioactivity biodistribution, Stomach” value ([1]; 0.25 h) of the same substance?
Answer: The value was 1.03±0.15 % injected dose per organ.

Question: What about the “Radioactivity biodistribution, Tumor” value ([1]; 0.25 h) of the same substance?
Answer: The value was 1.70±0.85 % injected dose per gram.

Question: What about the “T/B (tumor to blood ratio)” value ([1]; 0.25 h) of the same substance?
Answer: Its value is 0.04±0.01.

Question: And the “Radioactivity biodistribution, Blood” value ([1]; 1 h)?
Answer: The value was 24.81±3.60 % injected dose per gram.

Question: And the “Radioactivity biodistribution, Heart” value ([1]; 1 h)?
Answer: The value was 8.43±1.19 % injected dose per gram.

Question: What about the “Radioactivity biodistribution, Intestine” value ([1]; 1 h) of the same substance?
Answer: The value was 8.97±0.28 % injected dose per gram.

Question: What about the “Radioactivity biodistribution, Kidneys” value ([1]; 1 h) of the same substance?
Answer: The value was 11.66±1.17 % injected dose per gram.

Question: And the “Radioactivity biodistribution, Liver” value ([1]; 1 h)?
Answer: The value was 42.27±8.44 % injected dose per gram.

Question: What about the “Radioactivity biodistribution, Lung” value ([1]; 1 h) of the same substance?
Answer: The value was 12.56±1.70 % injected dose per gram.

Question: What about the “Radioactivity biodistribution, Muscle” value ([1]; 1 h) of the same substance?
Answer: The value was 1.94±0.33 % injected dose per gram.

Question: What about the “Radioactivity biodistribution, Pancreas” value ([1]; 1 h) of the same substance?
Answer: The value was 5.52±1.05 % injected dose per gram.

Question: And the “Radioactivity biodistribution, Spleen” value ([1]; 1 h)?
Answer: The value was 7.72±1.86 % injected dose per gram.

Question: What about the “Radioactivity biodistribution, Stomach” value ([1]; 1 h) of the same substance?
Answer: The value was 1.13±0.21 % injected dose per organ.

Question: And the “Radioactivity biodistribution, Tumor” value ([1]; 1 h)?
Answer: Its value is 1.90±0.38 % injected dose per gram.

Question: What about the “T/B (tumor to blood ratio)” value ([1]; 1 h) of the same substance?
Answer: Its value is 0.08±0.02.

Question: And the “Radioactivity biodistribution, Blood” value ([1]; 3 h)?
Answer: The value was 10.58±1.28 % injected dose per gram.

Question: And the “Radioactivity biodistribution, Heart” value ([1]; 3 h)?
Answer: Its value is 7.47±0.45 % injected dose per gram.

Question: What about the “Radioactivity biodistribution, Intestine” value ([1]; 3 h) of the same substance?
Answer: Its value is 20.39±4.51 % injected dose per gram.

Question: And the “Radioactivity biodistribution, Kidneys” value ([1]; 3 h)?
Answer: The value was 10.56±1.49 % injected dose per gram.

Question: And the “Radioactivity biodistribution, Liver” value ([1]; 3 h)?
Answer: The value was 50.70±7.52 % injected dose per gram.

Question: What about the “Radioactivity biodistribution, Lung” value ([1]; 3 h) of the same substance?
Answer: The value was 6.17±0.88 % injected dose per gram.

Question: And the “Radioactivity biodistribution, Muscle” value ([1]; 3 h)?
Answer: The value was 2.00±0.38 % injected dose per gram.

Question: What about the “Radioactivity biodistribution, Pancreas” value ([1]; 3 h) of the same substance?
Answer: Its value is 4.50±1.45 % injected dose per gram.

Question: What about the “Radioactivity biodistribution, Spleen” value ([1]; 3 h) of the same substance?
Answer: The value was 10.01±3.77 % injected dose per gram.

Question: What about the “Radioactivity biodistribution, Stomach” value ([1]; 3 h) of the same substance?
Answer: Its value is 1.14±0.33 % injected dose per organ.

Question: And the “Radioactivity biodistribution, Tumor” value ([1]; 3 h)?
Answer: The value was 2.65±0.33 % injected dose per gram.

Question: And the “T/B (tumor to blood ratio)” value ([1]; 3 h)?
Answer: The value was 0.25±0.05.

Question: What about the “Radioactivity biodistribution, Blood” value ([1]; 6 h) of the same substance?
Answer: Its value is 5.85±0.74 % injected dose per gram.

Question: And the “Radioactivity biodistribution, Heart” value ([1]; 6 h)?
Answer: The value was 5.71±0.61 % injected dose per gram.

Question: What about the “Radioactivity biodistribution, Intestine” value ([1]; 6 h) of the same substance?
Answer: Its value is 13.23±3.92 % injected dose per gram.

Question: And the “Radioactivity biodistribution, Kidneys” value ([1]; 6 h)?
Answer: Its value is 9.53±1.08 % injected dose per gram.

Question: And the “Radioactivity biodistribution, Liver” value ([1]; 6 h)?
Answer: The value was 30.08±5.98 % injected dose per gram.

Question: And the “Radioactivity biodistribution, Lung” value ([1]; 6 h)?
Answer: Its value is 4.38±0.32 % injected dose per gram.

Question: What about the “Radioactivity biodistribution, Muscle” value ([1]; 6 h) of the same substance?
Answer: The value was 1.68±0.46 % injected dose per gram.

Question: And the “Radioactivity biodistribution, Pancreas” value ([1]; 6 h)?
Answer: Its value is 5.53±1.77 % injected dose per gram.

Question: What about the “Radioactivity biodistribution, Spleen” value ([1]; 6 h) of the same substance?
Answer: The value was 10.00±2.61 % injected dose per gram.

Question: What about the “Radioactivity biodistribution, Stomach” value ([1]; 6 h) of the same substance?
Answer: Its value is 0.73±0.06 % injected dose per organ.

Question: And the “Radioactivity biodistribution, Tumor” value ([1]; 6 h)?
Answer: The value was 3.18±0.69 % injected dose per gram.

Question: What about the “T/B (tumor to blood ratio)” value ([1]; 6 h) of the same substance?
Answer: Its value is 0.55±0.15.

Question: What about the “Radioactivity biodistribution, Blood” value ([1]; 24 h) of the same substance?
Answer: The value was 5.26±0.94 % injected dose per gram.

Question: What about the “Radioactivity biodistribution, Heart” value ([1]; 24 h) of the same substance?
Answer: The value was 4.11±0.44 % injected dose per gram.

Question: What about the “Radioactivity biodistribution, Intestine” value ([1]; 24 h) of the same substance?
Answer: Its value is 4.90±0.90 % injected dose per gram.

Question: And the “Radioactivity biodistribution, Kidneys” value ([1]; 24 h)?
Answer: The value was 7.01±0.45 % injected dose per gram.

Question: And the “Radioactivity biodistribution, Liver” value ([1]; 24 h)?
Answer: Its value is 8.89±1.11 % injected dose per gram.

Question: And the “Radioactivity biodistribution, Lung” value ([1]; 24 h)?
Answer: The value was 2.63±0.28 % injected dose per gram.

Question: What about the “Radioactivity biodistribution, Muscle” value ([1]; 24 h) of the same substance?
Answer: Its value is 1.55±0.13 % injected dose per gram.

Question: What about the “Radioactivity biodistribution, Pancreas” value ([1]; 24 h) of the same substance?
Answer: The value was 6.21±3.76 % injected dose per gram.

Question: And the “Radioactivity biodistribution, Spleen” value ([1]; 24 h)?
Answer: The value was 4.82±1.10 % injected dose per gram.

Question: What about the “Radioactivity biodistribution, Stomach” value ([1]; 24 h) of the same substance?
Answer: Its value is 0.49±0.09 % injected dose per organ.

Question: What about the “Radioactivity biodistribution, Tumor” value ([1]; 24 h) of the same substance?
Answer: The value was 3.33±0.44 % injected dose per gram.

Question: What about the “T/B (tumor to blood ratio)” value ([1]; 24 h) of the same substance?
Answer: Its value is 0.65±0.15.

Question: And the “log P (partition coefficient)” value [2]?
Answer: Its value is −0.56±0.13.

Question: And the “Blood half-life, Fast” value [3]?
Answer: Its value is 4.0×10 min.

Question: What about the “Blood half-life, Slow” value [3] of the same substance?
Answer: Its value is 43.3 h.

Question: What about the “Clearance (total clearance)” value [3] of the same substance?
Answer: Its value is 0.0083 mL/min.

Question: And the Distribution volume [3]?
Answer: Its Distribution volume is 1.71 mL.

Question: And the Mean residence time [3]?
Answer: The Mean residence time was 210 min.

Question: And the “K1, rate constant for transfer from blood to tumor, Mean” value (HT1080 tumor xenograft)?
Answer: The value was 0.00071 mL/g/min.

Question: And the “k2, rate constant for clearance from tumor to blood, Mean” value (HT1080 tumor xenograft)?
Answer: The value was 0.0011 min⁻¹.

— publication PMC4092090, “Investigation of a MMP-2 Activity-Dependent Anchoring Probe for Nuclear Imaging of Cancer” (PLoS ONE, 2014)
